Source: publication PMC6254361, “The properties of Msh2–Msh6 ATP binding mutants suggest a signal amplification mechanism in DNA mismatch repair” (The Journal of Biological Chemistry, 2018)

Tests used:
[1] = target: S. cerevisiae Mlh1–Pms1 [S. cerevisiae]; test: SPR; details: GT mispair-containing double end-blocked DNA surface; buffer with ATP and LacI; read off a plot
[2] = test system: Msh2;Msh6 (Saccharomyces cerevisiae;Saccharomyces cerevisiae); test: SPR; details: SPR on streptavidin surface; buffer, salt, pH and temperature not given in the material; with or without 0.1-2.5 mM ATP; LacI end block, released by 1 mM IPTG
[3] = target: Walker A Lys mutant Msh2–Msh6 complexes (S. cerevisiae); test: SPR; Biacore T100; 236-bp GT mispair DNA held by biotin-streptavidin, other end blocked by lacO-LacI; 20 nM Msh2–Msh6, 250 μM ATP, 30 nM LacI for 100 s, then the same plus 40 nM Mlh1–Pms1 for 300 s; recruitment read as the increase in RU over steady-state Msh2–Msh6; 25 mM Tris pH 8, 4 mM MgCl2, 110 mM NaCl, 0.01% Igepal, 2 mM DTT, 2% glycerol; 10 °C, 20 μl/min; details: scale: Mlh1–Pms1 complexes bound per Msh2–Msh6 complex
[4] = test system: Msh2(K694A);Msh6 (Saccharomyces cerevisiae;Saccharomyces cerevisiae); test: SPR; details: ATP up to 2.5 mM, LacI; SPR on streptavidin surface; buffer, salt, pH and temperature not given in the material; with or without 0.1-2.5 mM ATP; LacI end block, released by 1 mM IPTG
[5] = test system: Msh2(K694M);Msh6 (Saccharomyces cerevisiae;Saccharomyces cerevisiae); test: SPR; details: ATP up to 2.5 mM, LacI; SPR on streptavidin surface; buffer, salt, pH and temperature not given in the material; with or without 0.1-2.5 mM ATP; LacI end block, released by 1 mM IPTG
[6] = test system: Msh2(K694R);Msh6 (Saccharomyces cerevisiae;Saccharomyces cerevisiae); test: SPR; details: ATP up to 2.5 mM, LacI; SPR on streptavidin surface; buffer, salt, pH and temperature not given in the material; with or without 0.1-2.5 mM ATP; LacI end block, released by 1 mM IPTG
[7] = test system: Msh2;Msh6(G1142D) (Saccharomyces cerevisiae;Saccharomyces cerevisiae); test: SPR; details: 0.1 and 2.5 mM ATP, LacI; printed as no more than 0.86; SPR on streptavidin surface; buffer, salt, pH and temperature not given in the material; with or without 0.1-2.5 mM ATP; LacI end block, released by 1 mM IPTG
[8] = test system: Msh2;Msh6;Mlh1;Pms1 (Saccharomyces cerevisiae;Saccharomyces cerevisiae;Saccharomyces cerevisiae;Saccharomyces cerevisiae); test: SPR; details: ATP, LacI; SPR on streptavidin surface; buffer, salt, pH and temperature not given in the material; with or without 0.1-2.5 mM ATP; LacI end block, released by 1 mM IPTG

For “S. cerevisiae Msh2–Msh6 (WT) mutant Msh6:K988M [S. cerevisiae] / S. cerevisiae Mlh1–Pms1 [S. cerevisiae] chain 4 K988M”, which screen value [1] is on record?
Its screen value is 3.4.

For 236-bp +T mispair DNA, which binding signal (% of WT RUmax) [2] is on record?
The binding signal (% of WT RUmax) was 100.

For “S. cerevisiae Msh2–Msh6 (WT) mutant Msh2:K694A [S. cerevisiae] / S. cerevisiae Mlh1–Pms1 [S. cerevisiae] chain 3 K694A”, which screen value [1] is on record?
The screen value was 3.5.

With “S. cerevisiae Mlh1–Pms1 (from UniProt P38920 1-769; P14242 1-873) (complex)” as the substance, how does the stoichiometry N [3] read?
The stoichiometry N was 2.06 to 3.75.

For “236-bp mispaired DNA, double end-blocked”, which binding signal (Msh2-Msh6 per DNA (maximum)) [4] is on record?
The binding signal (Msh2-Msh6 per DNA (maximum)) was 1.

And the binding signal (Msh2-Msh6 per DNA (maximum)) [5]?
Its binding signal (Msh2-Msh6 per DNA (maximum)) is 1.

What about the binding signal (Msh2-Msh6 per DNA (maximum)) [6] of the same substance?
The binding signal (Msh2-Msh6 per DNA (maximum)) was 1.

And the binding signal (Msh2-Msh6 per DNA) [7]?
The binding signal (Msh2-Msh6 per DNA) was under 0.86.

What about the binding signal (Mlh1-Pms1 per Msh2-Msh6) [8] of the same substance?
Its binding signal (Mlh1-Pms1 per Msh2-Msh6) is 1.07.

How did the screen value [1] turn out when “S. cerevisiae Msh2–Msh6 (WT) mutant Msh6:K988R [S. cerevisiae] / S. cerevisiae Mlh1–Pms1 [S. cerevisiae] chain 4 K988R” was run?
The screen value was 2.4.

With “S. cerevisiae Msh2–Msh6 (WT) mutant Msh2:K694M [S. cerevisiae] / S. cerevisiae Mlh1–Pms1 [S. cerevisiae] chain 3 K694M” as the substance, how does the screen value [1] read?
Its screen value is 4.9.

Which screen value [1] does the source give for “S. cerevisiae Msh2–Msh6 (WT) mutant Msh2:K694R [S. cerevisiae] / S. cerevisiae Mlh1–Pms1 [S. cerevisiae] chain 3 K694R” here?
The screen value was 4.3.

How did the screen value [1] turn out when “S. cerevisiae Msh2–Msh6 (WT) mutant Msh6:K988A [S. cerevisiae] / S. cerevisiae Mlh1–Pms1 [S. cerevisiae] chain 4 K988A” was run?
Its screen value is 3.3.
